The data set concerns the molecule itself. As to the kind of experiment: cross-linking; 20 μg/ml purified rfBC with BS3 (5 μl of 1 mM added to 100 μl), room temperature, 0-64 min, stopped with 20 mM Tris-HCl pH 7.5; SDS-PAGE and Coomassie staining.

B1: recombinant truncated form of bovine conglutinin (rfBC), composed of the α-helical neck region and the CRD (domain or fragment, bovine (Bos taurus), UniProt P23805 217-371, looked up)
chain: EVNALKQRVTILDGHLRRFQNAFSQYKKAVLFPDGQAVGEKIFKTAGAVKSYSDAEQLCREAKGQLASPRSSAENEAVTQMVRAQEKNAYLSMNDISTEGRFTYPTGEILVYSNWADGEPNNSDEGQPENCVEIFPDGKWNDVPCSKQLLVICEF
notes: bovine conglutinin, neck region (amino acids 197-224) and C-terminal CRD (amino acids 225-351); numbers count on: the mature protein; also called recombinant fragment of conglutinin; recombinant bovine conglutinin
By stoichiometry N is commonly meant a count of units in the complex or per binding partner. Consider B1, for which the “stoichiometry N” value came out at 3.

Values taken from paper PMC6370948, “Complement Dependent and Independent Interaction Between Bovine Conglutinin and Mycobacterium bovis BCG: Implications in Bovine Tuberculosis” (Frontiers in Immunology, 2018).
